# Like-named read-outs stand apart in the source and are kept apart here.
# B1: hu1E4(V1_VL1) x Grabody B (bispecific antibody, human IgG1, kappa)
# heavy 1: not shown
# heavy 2: not shown
# light: DIVMTQTPLSLSVTPGQPASISCRSSQSLVHSNGNTYLHWYLQKPGQSPQLLIYKVSNRFSGVPDRFSGSGSGTDFTLKISRVEAEDVGVYYCSQSTHVPRTFGQGTKLEIKRTVAAPSVFIFPPSDEQLKSGTASVVCLLNNFYPREAKVQWKVDNALQSGNSQESVTEQDSKDSTYSLSSTLTLSKADYEKHKVYACEVTHQGLSSPVTKSFNRGEC
# notes: Anti-α-syn/IGF1R bispecific; hole heavy chain (M428L) carries the anti-IGF1R scFv Grabody B at its C-terminus through a (G4S)3 linker; knob heavy chain (M428L) without scFv; also called hu1E4(V1 VL1) × Grabody B; 1E4(Ver.1_VL1) × Grabody B
# What was measured:
# [1] = biological target: T1, monomeric human α-synuclein (Active Human Recombinant Alpha Synuclein Protein Monomer type II, StressMarq … (human, UniProt P37840 1-140)); assay: SPR (Biacore T200), antibody captured on Protein A chip, α-syn monomer as analyte (Monomer-4), 25 °C; Run02; number of the software's 1:1 fit printed under a sensorgram without binding response (the filing's Table 18: No-binding)
# Method: (§1) The equipment used was Biacore® T200. The anti-α-syn monospecific antibody or the anti-α-syn/IGF1R bispecific antibody was diluted with 1×HBS-EPT. […] Each diluted monomer sample was injected at 60 μL/min onto the Protein A chip surface for 60 seconds, followed by washing with 1×HBS-EP buffer. The dissociation rate was evaluated for 180 seconds. All procedures in association/dissociation phases were done in single cycle kinetics. The chip surface was regenerated by injecting 10 mM glycine-HCl pH 1.5 (GE Healthcare) onto the chip surface for 60 seconds at 30 μL/min, removing residual α-syn monomer/antibody complex. A 1:1 binding model was used for fitting, and the Biacore® T200 Evaluation software was used for evaluation.
# [2] = biological target: human α-synuclein pre-formed fibrils (Human Alpha Synuclein Pre-formed Fibrils Type II, StressMarq SPR-317) (human, UniProt P37840 1-140); assay: SPR Biacore 'as described above', antibody captured, α-syn PFF analyte, 1:1 model
# [3] = biological target: T2, human α-synuclein oligomers (Dopamine HCL Stabilized Human Recombinant Alpha Synuclein Oligomers, StressMarq … (human, UniProt P37840 1-140)); assay: sandwich ELISA, antibody coated, oligomeric α-syn added, 7B7-biotin detection
# Method: Human α-syn oligomers from StressMarq (Dopamine HCL Stabilized Human Recombinant Alpha Synuclein Oligomers, SPR-466) was used as the oligomeric α-syn in the assay.
# (§2) In this sandwich ELISA, test antibodies were diluted with PBS by five-fold serial dilution from 80 nM to 0.005 nM. The serially diluted antibodies were added to a 96-well plate at 100 μL/well for coating. The plate was sealed and incubated at 4° C. for 16 hours. After washing with PBS-T five times, the plate was blocked with 5% BSA in PBS 200 μL/well at 37° C. for 2 hours. After washing with PBS-T five times, oligomeric α-syn (2 μg/mL, 100 μL/well in 2% BSA in PBS) was added and incubated at 37° C. for 2 hours. After washing with PBS-T five times, 7B7-biotin antibody (1 μg/mL, 100 μL/well, in 2% BSA in PBS) were added and incubated at 37° C. for 2 hours. After washing with PBS-T five times, the plate was incubated with Streptavidin-HRP in 2% BSA in PBS (1:5000, 1 mg/mL stock, 20 ng/well, 100 μL/well) at 37° C. for 1 hour. After washing with PBS-T five times, TMB (100 μL/well) was added and incubated at RT for 5 minutes. The reaction was stopped by the addition of 0.5 N H₂SO₄ (50 μL/well).
# [4] = biological target: T2, human α-synuclein oligomers (Dopamine …); assay: as above; remark: listed apart in the source
# Method: as §2
# [5] = biological target: T1, monomeric human α-synuclein (Active …); assay: SPR (Biacore T200), antibody captured on Protein A chip, α-syn monomer as analyte (Monomer-1), 25 °C; Run01; number of the software's 1:1 fit printed under a sensorgram without binding response (the filing's Table 18: No-binding)
# Method: as §1
binder,measurement,setting,value
B1,koff,[1],0.537 s⁻¹
same,kon,[1],46900 M⁻¹ s⁻¹
same,Kd,[2],0.025 nM
same,koff,[2],0.000345 s⁻¹
same,kon,[2],1.4e+07 M⁻¹ s⁻¹
same,EC50,[3],3.62 nM
same,Saturation point,[3],3.18
same,EC50,[4],3.82 nM
same,koff,[5],2.23 s⁻¹
same,kon,[5],3.57e+07 M⁻¹ s⁻¹
